The text below walks through data of patent US11312769B2, “Anti-TMEFF1 antibodies and antibody drug conjugates” (Bluefin BioMedicine, Inc., priority 2017, dated 2022).

Experiment [1] has as its target T1, recombinant TMEFF1 (Homo sapiens, UniProt Q8IYR6).
T1 construct: generated to secrete the ECD from CHO cells to assist with biophysical evaluations; His tag (C); made in house; host or cells: CHO (ExpiCHO)
T1 sequence (Q8IYR6 40-330 limits assumed): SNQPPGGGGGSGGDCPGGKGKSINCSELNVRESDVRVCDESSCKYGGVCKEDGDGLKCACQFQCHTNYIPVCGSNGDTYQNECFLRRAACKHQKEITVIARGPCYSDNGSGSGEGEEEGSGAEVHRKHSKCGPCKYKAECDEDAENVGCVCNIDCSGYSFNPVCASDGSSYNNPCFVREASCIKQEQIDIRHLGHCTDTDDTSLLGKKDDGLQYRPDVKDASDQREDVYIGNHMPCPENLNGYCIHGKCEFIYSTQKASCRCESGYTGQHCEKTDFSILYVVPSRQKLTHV
In words: Binding competition binning (Octet). Conditions: seven antibodies, 3 bins. As for the experimental part: Binding competition among different antibodies was determined using a real-time, interferometry assay on an Octet Red™ instrument with Protein A-conjugated biosensors. To assess whether two antibodies competed for binding to a recombinant TMEFF1 protein, the assay was performed as follows. Protein A biosensors were first submerged into wells containing 10 ug/mL of individual monoclonal antibodies for 5 minutes. Following the capture step, the biosensors were dipped briefly (15 seconds) into buffer and then any unoccupied sites on the biosensor were saturated by submerging them for 5 minutes into wells containing 100 ug/mL of an irrelevant monoclonal antibody. The Octet biosensors were then dipped briefly (15 seconds) in buffer before immersion for 1 minute into wells containing recombinant TMEFF1. The biosensors were dipped briefly (15 seconds) in buffer before immersion for 1 minute into wells containing a second recombinant antibody.
For the control case where the second antibody was the same as the first, there was no increase in signal, because there was no additional binding to the recombinant target.
For the control case where buffer was used instead of the first antibody, no recombinant target bound the non-quenching antibody on the biosensor and no second antibody bound the biosensor.
Competition binning using Octet™ was done with seven antibodies and 3 separate bins were identified.

Experiment [2] deals with hTMEFF1-ECD recombinant deletion mutants. In words: Binding domain determination with hTMEFF1-ECD deletion mutants (Octet). As to conditions: full length TMEFF1 ECD vs ΔFS1, ΔFS2, ΔFS1&FS2. Details: species or system human; key: FS1—follistatin domain 1; FS2—follistatin domain 2. The text has this:
TMEFF1 recombinant proteins expressing 3 different deletion mutants, AFS1 (AFollistatin Domain 1), AFS2 (AFollistatin Domain 2) or AFS1&FS2 were used to identify binding domains among different antibodes using an Octet Red instrument with Anti-Penta-His (HIS 1K) biosensors. Expression of the 3 deletion mutants was confirmed by WB analysis. 100 ngs of purified TMEFF1 ECD was run along with unpurified supernatant of transfected CHO cells with the different deletion mutants. HIS 1K biosensors were loaded by submerging the biosensors into wells containing 10 ug/ml of full length TMEFF1 or one of 3 different deletion mutants (AFS1, AFS2 or AFS1&FS2) for 60 seconds. Following the loading step, the biosensors were then dipped for 30 seconds in PBS before immersion for 30 seconds in 200 ul of unpurified recombinant antibodies for 30 seconds. The biosensors were then dipped briefly (30 seconds) in PBS to observe any dissociation. Samples were determined to show binding or no binding by comparing to a control well that contained no recombinant antibody. Differential binding to the deletion mutants allowed for determination of binding sites on TMEFF1 recombinant protein. For cases where the antibody bound all 3 recombinant proteins, the binding is outside of the deleted domains. For the case where binding is observed only on full length TMEFF1 and AFS2, the antibody is binding in the ΔFS1 domain.
26 of the identified antibodies were checked for epitope domain binding by Octet™ using the hTMEFF1-ECD recombinant deletion mutants (see Table 7, below).

In experiment [3] the test system is 293-hTMEFF1 cells. As to the kind of experiment: Flow based antibody internalization assay. The format is cell-based, human. Conditions: 293-hTMEFF1 fixed with PFA, antibody 1 ug/ml, 30-120 min. As for the experimental part:
For Flow based internalization assay, 293-hTMEFF1 cells were collected and either fixed with 4% paraformaldehyde (PFA) for 20 minutes at 37° C. or kept live on ice. Cells were then incubated on ice for 40 minutes with anti-TMEFF1 antibody at 1 ug/ml, washed 2× with ice cold PBS, resuspended in complete warm media and incubated at 37° C. for 30, 60 or 120 minutes. Live cells were then fixed at those time points, washed 2× with PBS and labeled with fluorescent conjugated secondary antibody for 30 minutes on ice.
Antibody mediated TMEFF1 internalization was evaluated by Flow cytometry with five human anti-TMEFF1 antibodies in 293-hTMEFF1 cells. Fixed cells were treated with the antibody as a control of antibody loss due to detachment rather than internalization which would result in reduce signal. Thus a constant signal over time in fixed cells and a loss of signal in live cells would indicate antibody internalization. […] In live cells, it was observed that most antibodies show about a 50% internalization by 30 min of treatment (FIG. 1B).

B1: 24F10: human anti-TMEFF1 IgG1 antibody; VH SEQ ID NO: 33, VL SEQ ID NO: 36 (antibody, V domains shown)
VH: QVQLVESGGGVVQPGRSLRLSCAASGFTFSSYGMHWVRQAPGKGLEWVAVIWYDGSDKYYTDSVKGRFTISRDNSKNTLYLQMNSLRAEDTAVYYCARESMVRGIVITFFDYWGQGTLVTVSS
VL: EIVMTQSPATLSVSPGERATLSCRASQSVSSNLAWYQQKPGQAPRLLIYGASTRATGIPARFSGSGSGTEFTLTISSLQSEDFAVYSCQHYNNWPPTFGGGTKVEIK
Regarding B1, in experiment [1], the “Competition binning (epitope bin)” value is “compete with each other and bind FS1”. The “Binding region (epitope domain binding)” value in experiment [2] is reported as “FS1”. Besides, the “Cell surface binding in fixed cells over the duration of the assay” value in experiment [3] is reported as “consistent cell surface binding in fix cells”.

B2: 31B7: human anti-TMEFF1 IgG1 antibody; VH SEQ ID NO: 17, VL SEQ ID NO: 21 (antibody, V domains shown)
VH: QVQLVESGGGVVQPGRSLRLSCAASGFTFSSYGMHWVRQAPGKGLEWVAVIWYNGINKYYADSVKGRFTISRDASKNTLYLQMNSLRAEDTAVYYCAREGLLWFGGMDVWGQGTTVTVSS
VL: EIVLTQSPLSLPVTPGEPASISCRSSQSLLHSNGYNYLHWYLQKPGQSPQLLIYLGSNRASGVPDRFSGSRSGTDFTLKIIRVEAEDVGVYYCMQALQTPYTFGQGTKLEIK
As for B2, the “Competition binning (epitope bin)” value in experiment [1] was “bind a region different from FS1 or FS2 and compete with each other”. In addition, the “Binding region (epitope domain binding)” value in experiment [2] was “other”. Further, the “Cell surface binding in fixed cells over the duration of the assay” value in experiment [3] is “consistent cell surface binding in fix cells”.

B3: 36H6: human anti-TMEFF1 IgG1 antibody; VH SEQ ID NO: 43, VL SEQ ID NO: 47 (antibody, V domains shown)
VH: QVQLVESGGGVVQPGRSLRLSCAASGFTFSDYGMHWVRQAPGKGLEWVAVIWYEGGNKYYTDSVKGRFTISRDNSKNTLYLQMNSLRAEDTAVYYCARILLWFGESYGMDVWGQGTTVTVSS
VL: DIQMTQSPSSLSASVGDRVTITCRASQGISNYLAWYQQKPGKVPKLLIYAASTLQSGVPSRFSGSGSGTDFTLTISSLQPEDVATYYCQKYNNAPWTFGQGTKVEIK
For B3, the “Competition binning (epitope bin)” value in experiment [1] was “compete with each other and bind FS1”. Besides, in experiment [2], the “Binding region (epitope domain binding)” value is given as “FS1”. Moreover, the “Cell surface binding in fixed cells over the duration of the assay” value in experiment [3] is listed as “consistent cell surface binding in fix cells”.
